T1: IL10R1-Fc (human, UniProt Q13651 22-235)
T1 chain: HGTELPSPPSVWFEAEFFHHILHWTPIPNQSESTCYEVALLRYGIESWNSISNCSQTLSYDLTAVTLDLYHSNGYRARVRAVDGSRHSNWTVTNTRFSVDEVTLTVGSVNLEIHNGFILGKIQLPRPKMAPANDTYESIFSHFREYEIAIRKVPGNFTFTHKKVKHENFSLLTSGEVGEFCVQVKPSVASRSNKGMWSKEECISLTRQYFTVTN

B1: XENP14246 (WT) (protein)
chain 1: EPKSSDKTHTCPPCPAPPVAGPSVFLFPPKPKDTLMISRTPEVTCVVVDVKHEDPEVKFNWYVDGVEVHNAKTKPREEEYNSTYRVVSVLTVLHQDWLNGKEYKCKVSNKALPAPIEKTISKAKGQPREPQVYTLPPSREEMTKNQVSLTCDVSGFYPSDIAVEWESDGQPENNYKTTPPVLDSDGSFFLYSKLTVDKSRWEQGDVFSCSVMHEALHNHYTQKSLSLSPGK
chain 2: SPGQGTQSENSCTHFPGNLPNMLRDLRDAFSRVKTFFQMKDQLDNLLLKESLLEDFKGYLGCQALSEMIQFYLEEVMPQAENQDPDIKAHVNSLGENLKTLRLRLRRCHRFLPCENGGGSGGKSKAVEQVKNAFNKLQEKGIYKAMSEFDIFINYIEAYMTMKIRNEPKSSDKTHTCPPCPAPPVAGPSVFLFPPKPKDTLMISRTPEVTCVVVDVKHEDPEVKFNWYVDGVEVHNAKTKPREEQYNSTYRVVSVLTVLHQDWLNGKEYKCKVSNKALPAPIEKTISKAKGQPREPQVYTLPPSREQMTKNQVKLTCLVKGFYPSDIAVEWESNGQPENNYKTTPPVLDSDGSFFLYSKLTVDKSRWQQGNVFSCSVMHEALHNHYTQKSLSLSPGK
B2: XENP25754 (D28N) (protein)
chain 1: EPKSSDKTHTCPPCPAPPVAGPSVFLFPPKPKDTLMISRTPEVTCVVVDVKHEDPEVKFNWYVDGVEVHNAKTKPREEEYNSTYRVVSVLTVLHQDWLNGKEYKCKVSNKALPAPIEKTISKAKGQPREPQVYTLPPSREEMTKNQVSLTCDVSGFYPSDIAVEWESDGQPENNYKTTPPVLDSDGSFFLYSKLTVDKSRWEQGDVFSCSVMHEALHNHYTQKSLSLSPGK
chain 2: SPGQGTQSENSCTHFPGNLPNMLRDLRNAFSRVKTFFQMKDQLDNLLLKESLLEDFKGYLGCQALSEMIQFYLEEVMPQAENQDPDIKAHVNSLGENLKTLRLRLRRCHRFLPCENGGGSGGKSKAVEQVKNAFNKLQEKGIYKAMSEFDIFINYIEAYMTMKIRNEPKSSDKTHTCPPCPAPPVAGPSVFLFPPKPKDTLMISRTPEVTCVVVDVKHEDPEVKFNWYVDGVEVHNAKTKPREEQYNSTYRVVSVLTVLHQDWLNGKEYKCKVSNKALPAPIEKTISKAKGQPREPQVYTLPPSREQMTKNQVKLTCLVKGFYPSDIAVEWESNGQPENNYKTTPPVLDSDGSFFLYSKLTVDKSRWQQGNVFSCSVMHEALHNHYTQKSLSLSPGK
B3: XENP25753 (N21D) (protein)
chain 1: EPKSSDKTHTCPPCPAPPVAGPSVFLFPPKPKDTLMISRTPEVTCVVVDVKHEDPEVKFNWYVDGVEVHNAKTKPREEEYNSTYRVVSVLTVLHQDWLNGKEYKCKVSNKALPAPIEKTISKAKGQPREPQVYTLPPSREEMTKNQVSLTCDVSGFYPSDIAVEWESDGQPENNYKTTPPVLDSDGSFFLYSKLTVDKSRWEQGDVFSCSVMHEALHNHYTQKSLSLSPGK
chain 2: SPGQGTQSENSCTHFPGNLPDMLRDLRDAFSRVKTFFQMKDQLDNLLLKESLLEDFKGYLGCQALSEMIQFYLEEVMPQAENQDPDIKAHVNSLGENLKTLRLRLRRCHRFLPCENGGGSGGKSKAVEQVKNAFNKLQEKGIYKAMSEFDIFINYIEAYMTMKIRNEPKSSDKTHTCPPCPAPPVAGPSVFLFPPKPKDTLMISRTPEVTCVVVDVKHEDPEVKFNWYVDGVEVHNAKTKPREEQYNSTYRVVSVLTVLHQDWLNGKEYKCKVSNKALPAPIEKTISKAKGQPREPQVYTLPPSREQMTKNQVKLTCLVKGFYPSDIAVEWESNGQPENNYKTTPPVLDSDGSFFLYSKLTVDKSRWQQGNVFSCSVMHEALHNHYTQKSLSLSPGK
B4: XENP25759 (L43V) (protein)
chain 1: EPKSSDKTHTCPPCPAPPVAGPSVFLFPPKPKDTLMISRTPEVTCVVVDVKHEDPEVKFNWYVDGVEVHNAKTKPREEEYNSTYRVVSVLTVLHQDWLNGKEYKCKVSNKALPAPIEKTISKAKGQPREPQVYTLPPSREEMTKNQVSLTCDVSGFYPSDIAVEWESDGQPENNYKTTPPVLDSDGSFFLYSKLTVDKSRWEQGDVFSCSVMHEALHNHYTQKSLSLSPGK
chain 2: SPGQGTQSENSCTHFPGNLPNMLRDLRDAFSRVKTFFQMKDQVDNLLLKESLLEDFKGYLGCQALSEMIQFYLEEVMPQAENQDPDIKAHVNSLGENLKTLRLRLRRCHRFLPCENGGGSGGKSKAVEQVKNAFNKLQEKGIYKAMSEFDIFINYIEAYMTMKIRNEPKSSDKTHTCPPCPAPPVAGPSVFLFPPKPKDTLMISRTPEVTCVVVDVKHEDPEVKFNWYVDGVEVHNAKTKPREEQYNSTYRVVSVLTVLHQDWLNGKEYKCKVSNKALPAPIEKTISKAKGQPREPQVYTLPPSREQMTKNQVKLTCLVKGFYPSDIAVEWESNGQPENNYKTTPPVLDSDGSFFLYSKLTVDKSRWQQGNVFSCSVMHEALHNHYTQKSLSLSPGK
B5: XENP25761 (N45D) (protein)
chain 1: EPKSSDKTHTCPPCPAPPVAGPSVFLFPPKPKDTLMISRTPEVTCVVVDVKHEDPEVKFNWYVDGVEVHNAKTKPREEEYNSTYRVVSVLTVLHQDWLNGKEYKCKVSNKALPAPIEKTISKAKGQPREPQVYTLPPSREEMTKNQVSLTCDVSGFYPSDIAVEWESDGQPENNYKTTPPVLDSDGSFFLYSKLTVDKSRWEQGDVFSCSVMHEALHNHYTQKSLSLSPGK
chain 2: SPGQGTQSENSCTHFPGNLPNMLRDLRDAFSRVKTFFQMKDQLDDLLLKESLLEDFKGYLGCQALSEMIQFYLEEVMPQAENQDPDIKAHVNSLGENLKTLRLRLRRCHRFLPCENGGGSGGKSKAVEQVKNAFNKLQEKGIYKAMSEFDIFINYIEAYMTMKIRNEPKSSDKTHTCPPCPAPPVAGPSVFLFPPKPKDTLMISRTPEVTCVVVDVKHEDPEVKFNWYVDGVEVHNAKTKPREEQYNSTYRVVSVLTVLHQDWLNGKEYKCKVSNKALPAPIEKTISKAKGQPREPQVYTLPPSREQMTKNQVKLTCLVKGFYPSDIAVEWESNGQPENNYKTTPPVLDSDGSFFLYSKLTVDKSRWQQGNVFSCSVMHEALHNHYTQKSLSLSPGK
B6: XENP25763 (I87A) (protein)
chain 1: EPKSSDKTHTCPPCPAPPVAGPSVFLFPPKPKDTLMISRTPEVTCVVVDVKHEDPEVKFNWYVDGVEVHNAKTKPREEEYNSTYRVVSVLTVLHQDWLNGKEYKCKVSNKALPAPIEKTISKAKGQPREPQVYTLPPSREEMTKNQVSLTCDVSGFYPSDIAVEWESDGQPENNYKTTPPVLDSDGSFFLYSKLTVDKSRWEQGDVFSCSVMHEALHNHYTQKSLSLSPGK
chain 2: SPGQGTQSENSCTHFPGNLPNMLRDLRDAFSRVKTFFQMKDQLDNLLLKESLLEDFKGYLGCQALSEMIQFYLEEVMPQAENQDPDAKAHVNSLGENLKTLRLRLRRCHRFLPCENGGGSGGKSKAVEQVKNAFNKLQEKGIYKAMSEFDIFINYIEAYMTMKIRNEPKSSDKTHTCPPCPAPPVAGPSVFLFPPKPKDTLMISRTPEVTCVVVDVKHEDPEVKFNWYVDGVEVHNAKTKPREEQYNSTYRVVSVLTVLHQDWLNGKEYKCKVSNKALPAPIEKTISKAKGQPREPQVYTLPPSREQMTKNQVKLTCLVKGFYPSDIAVEWESNGQPENNYKTTPPVLDSDGSFFLYSKLTVDKSRWQQGNVFSCSVMHEALHNHYTQKSLSLSPGK
B7: XENP25760 (D44N) (protein)
chain 1: EPKSSDKTHTCPPCPAPPVAGPSVFLFPPKPKDTLMISRTPEVTCVVVDVKHEDPEVKFNWYVDGVEVHNAKTKPREEEYNSTYRVVSVLTVLHQDWLNGKEYKCKVSNKALPAPIEKTISKAKGQPREPQVYTLPPSREEMTKNQVSLTCDVSGFYPSDIAVEWESDGQPENNYKTTPPVLDSDGSFFLYSKLTVDKSRWEQGDVFSCSVMHEALHNHYTQKSLSLSPGK
chain 2: SPGQGTQSENSCTHFPGNLPNMLRDLRDAFSRVKTFFQMKDQLNNLLLKESLLEDFKGYLGCQALSEMIQFYLEEVMPQAENQDPDIKAHVNSLGENLKTLRLRLRRCHRFLPCENGGGSGGKSKAVEQVKNAFNKLQEKGIYKAMSEFDIFINYIEAYMTMKIRNEPKSSDKTHTCPPCPAPPVAGPSVFLFPPKPKDTLMISRTPEVTCVVVDVKHEDPEVKFNWYVDGVEVHNAKTKPREEQYNSTYRVVSVLTVLHQDWLNGKEYKCKVSNKALPAPIEKTISKAKGQPREPQVYTLPPSREQMTKNQVKLTCLVKGFYPSDIAVEWESNGQPENNYKTTPPVLDSDGSFFLYSKLTVDKSRWQQGNVFSCSVMHEALHNHYTQKSLSLSPGK
B8: XENP25756 (M39T) (protein)
chain 1: EPKSSDKTHTCPPCPAPPVAGPSVFLFPPKPKDTLMISRTPEVTCVVVDVKHEDPEVKFNWYVDGVEVHNAKTKPREEEYNSTYRVVSVLTVLHQDWLNGKEYKCKVSNKALPAPIEKTISKAKGQPREPQVYTLPPSREEMTKNQVSLTCDVSGFYPSDIAVEWESDGQPENNYKTTPPVLDSDGSFFLYSKLTVDKSRWEQGDVFSCSVMHEALHNHYTQKSLSLSPGK
chain 2: SPGQGTQSENSCTHFPGNLPNMLRDLRDAFSRVKTFFQTKDQLDNLLLKESLLEDFKGYLGCQALSEMIQFYLEEVMPQAENQDPDIKAHVNSLGENLKTLRLRLRRCHRFLPCENGGGSGGKSKAVEQVKNAFNKLQEKGIYKAMSEFDIFINYIEAYMTMKIRNEPKSSDKTHTCPPCPAPPVAGPSVFLFPPKPKDTLMISRTPEVTCVVVDVKHEDPEVKFNWYVDGVEVHNAKTKPREEQYNSTYRVVSVLTVLHQDWLNGKEYKCKVSNKALPAPIEKTISKAKGQPREPQVYTLPPSREQMTKNQVKLTCLVKGFYPSDIAVEWESNGQPENNYKTTPPVLDSDGSFFLYSKLTVDKSRWQQGNVFSCSVMHEALHNHYTQKSLSLSPGK
B9: XENP25758 (Q42E) (protein)
chain 1: EPKSSDKTHTCPPCPAPPVAGPSVFLFPPKPKDTLMISRTPEVTCVVVDVKHEDPEVKFNWYVDGVEVHNAKTKPREEEYNSTYRVVSVLTVLHQDWLNGKEYKCKVSNKALPAPIEKTISKAKGQPREPQVYTLPPSREEMTKNQVSLTCDVSGFYPSDIAVEWESDGQPENNYKTTPPVLDSDGSFFLYSKLTVDKSRWEQGDVFSCSVMHEALHNHYTQKSLSLSPGK
chain 2: SPGQGTQSENSCTHFPGNLPNMLRDLRDAFSRVKTFFQMKDELDNLLLKESLLEDFKGYLGCQALSEMIQFYLEEVMPQAENQDPDIKAHVNSLGENLKTLRLRLRRCHRFLPCENGGGSGGKSKAVEQVKNAFNKLQEKGIYKAMSEFDIFINYIEAYMTMKIRNEPKSSDKTHTCPPCPAPPVAGPSVFLFPPKPKDTLMISRTPEVTCVVVDVKHEDPEVKFNWYVDGVEVHNAKTKPREEQYNSTYRVVSVLTVLHQDWLNGKEYKCKVSNKALPAPIEKTISKAKGQPREPQVYTLPPSREQMTKNQVKLTCLVKGFYPSDIAVEWESNGQPENNYKTTPPVLDSDGSFFLYSKLTVDKSRWQQGNVFSCSVMHEALHNHYTQKSLSLSPGK

Broadly, the Kd is the constant that tells how readily two partners part at equilibrium.

The assay addresses T1, IL10R1-Fc. As to the kind of experiment: BLI. (BLI is a label-free optical method that tracks binding on a fibre tip over time.)
Molecule B1 registered a dissociation constant Kd of 5.05 nM.

For the molecule B2, binding was characterised by a dissociation constant (Kd) of 3.86 nM. In the case of B3 it was 8.14 nM; in that of B4, 16.4 nM. In the case of B5 it was 10.6 nM. Consider B6, for which binding was characterised by a dissociation constant (Kd) of 14.4 nM. In the case of B7 it was 1.23 nM; in that of B8, 4.76 nM; in that of B9, 7.3 nM.
